This is an account of results in patent US20240425606A1, “ANTI-IL-11RA ANTIBODIES” (Lassen Therapeutics 1, Inc., priority 2021, published 2024).

The chains are these.
B1: mAb7 (antibody, V domains shown)
VH: EVQLLESGGGLVQPGGSLRLSCAASGFTFSNYAMSWVRQAPGKGLEWVSSIVPYGDLTQYADSVKGRFTISRDNSKNTLYLQMNSLRAEDTAVYYCAKGPGWGSFDLWGRGTLVTVSS
VL: DIQMTQSPSSLSASVGDRVTITCQASQDINNYLNWYQQKPGKAPKLLIYDASNLQTGVPSRFSGSGSGTDFTFTISSLQPEDIATYYCQQHESQSPTFGPGTKVDIK
notes: Expressed as human IgG4 (S228P EU)
B2: mAb8 (antibody, V domains shown)
VH: B1 VH with N31S
VL: B1 VL
notes: as for B1
B3: mAb9 (antibody, V domains shown)
VH: B1 VH with N31W, A33S, S35T, S50G
VL: B1 VL
notes: as for B1
B4: mAb11: anti-IL-11Rα antibody; VH SEQ ID NO: 213, VL SEQ ID NO: 214; human IgG4 (S228P), kappa light chain (antibody, V domains shown)
VH: B1 VH with N31W, A33S, S35T, P53D
VL: B1 VL
modifications: human IgG4 S228P and kappa constant regions; mAb11 VH Chain; mAb11 VL Chain
notes: anti-IL-11Rα antibody; human IgG4 (S228P), kappa light chain
B5: mAb15: anti-IL-11Rα antibody; VH SEQ ID NO: 221, VL SEQ ID NO: 222; human IgG4 (S228P), kappa light chain (antibody, V domains shown)
VH: B1 VH with N31W, A33S, S35T
VL: B1 VL with S93T, S95T
modifications: human IgG4 S228P and kappa constant regions; mAb15 VH Chain; mAb15 VL Chain
notes: as for B4
B6: mAb10: anti-IL-11Rα antibody; VH SEQ ID NO: 211, VL SEQ ID NO: 212; human IgG4 (S228P), kappa light chain (antibody, V domains shown)
VH: B1 VH with N31W, A33S, S35T, P53A
VL: B1 VL
modifications: human IgG4 S228P and kappa constant regions; mAb10 VH Chain; mAb10 VL Chain
notes: as for B4
B7: mAb12: anti-IL-11Rα antibody; VH SEQ ID NO: 215, VL SEQ ID NO: 216; human IgG4 (S228P), kappa light chain (antibody, V domains shown)
VH: B1 VH with N31W, A33S, S35T, G103Y
VL: B1 VL
modifications: human IgG4 S228P and kappa constant regions; mAb12 VH Chain; mAb12 VL Chain
notes: as for B4
B8: mAb9: anti-IL-11Rα antibody; VH SEQ ID NO: 209, VL SEQ ID NO: 210; human IgG4 (S228P), kappa light chain (antibody, V domains shown)
VH: B1 VH with N31W, A33S, S35T, S50G
VL: B1 VL
modifications: human IgG4 and kappa constant regions; mAb9 VH Chain; mAb9 VL Chain
notes: as for B4
B9: mAb13: anti-IL-11Rα antibody; VH SEQ ID NO: 217, VL SEQ ID NO: 218; human IgG4 (S228P), kappa light chain (antibody, V domains shown)
VH: B1 VH with N31W, A33S, S35T, G99P, P100E, G101D, S104R
VL: B1 VL
modifications: human IgG4 S228P and kappa constant regions; mAb13 VH Chain; mAb13 VL Chain
notes: as for B4
B10: mAb14: anti-IL-11Rα antibody; VH SEQ ID NO: 219, VL SEQ ID NO: 220; human IgG4 (S228P), kappa light chain (antibody, V domains shown)
VH: B1 VH with N31W, A33S, S35T, D62E
VL: B1 VL
modifications: human IgG4 S228P and kappa constant regions; mAb14 VH Chain; mAb14 VL Chain
notes: as for B4

Positions count from the first letter of the chain named. In names and notes the source's numbering stands.

One test addresses T1, IL-11R on STAT3 Reporter (Luciferase)-HEK293 cells (UniProt Q14626 23-422).
T1 sequence (looked up): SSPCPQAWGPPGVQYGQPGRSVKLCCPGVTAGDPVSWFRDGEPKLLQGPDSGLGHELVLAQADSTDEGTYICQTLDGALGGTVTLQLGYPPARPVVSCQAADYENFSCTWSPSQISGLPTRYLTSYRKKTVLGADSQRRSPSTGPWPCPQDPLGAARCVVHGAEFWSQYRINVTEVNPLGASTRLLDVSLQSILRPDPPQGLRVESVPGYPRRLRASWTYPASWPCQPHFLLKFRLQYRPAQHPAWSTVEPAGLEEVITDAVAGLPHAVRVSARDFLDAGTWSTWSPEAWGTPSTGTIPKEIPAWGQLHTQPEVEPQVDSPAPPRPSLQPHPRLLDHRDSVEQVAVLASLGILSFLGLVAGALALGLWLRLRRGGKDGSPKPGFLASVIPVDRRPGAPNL
In words: cell-based or functional assay.
Conditions: not given
For the molecule B1, the “IC50, STAT3 luciferase reporter assay (HEK293), inhibiting IL-11, Assay 1” value (from here on “IC50 … inhibiting IL-11, Assay 1”) turned out to be 1 µg/mL and the “IC50, STAT3 luciferase reporter assay (HEK293), inhibiting IL-11, Mean” value (shortened to “IC50 … inhibiting IL-11, Mean”) worked out at 1 µg/mL.

Turning to B2, the “IC50 … inhibiting IL-11, Assay 1” value was found to be 0.67 µg/mL; the “IC50, STAT3 luciferase reporter assay (HEK293), inhibiting IL-11, Assay 2” value was determined as 1.25 µg/mL; the “IC50 … inhibiting IL-11, Mean” value turned out to be 0.96 µg/mL.

Regarding B3, the “IC50 … inhibiting IL-11, Assay 1” value was 0.11 µg/mL; the “IC50, STAT3 luciferase reporter assay (HEK293), inhibiting IL-11, Assay 2” value was found to be 0.1 µg/mL; the “IC50 … inhibiting IL-11, Mean” value is 0.1 µg/mL.

The next test addresses T2, human IL-11Rα (human, UniProt Q14626 23-363, limits assumed).
T2 construct: Protein coated on ELISA plates and used in solution for BLI; also called hIL-11Rα; hIL-11R
T2 sequence: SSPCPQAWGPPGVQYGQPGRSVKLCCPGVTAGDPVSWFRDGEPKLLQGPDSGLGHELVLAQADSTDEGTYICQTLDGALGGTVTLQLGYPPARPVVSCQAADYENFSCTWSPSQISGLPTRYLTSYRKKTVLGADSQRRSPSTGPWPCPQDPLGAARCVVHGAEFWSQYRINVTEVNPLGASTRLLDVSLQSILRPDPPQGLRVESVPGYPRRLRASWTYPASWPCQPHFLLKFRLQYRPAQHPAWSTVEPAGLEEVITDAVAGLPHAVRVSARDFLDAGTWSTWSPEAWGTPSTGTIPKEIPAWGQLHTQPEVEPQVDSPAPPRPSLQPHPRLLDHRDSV
In words: competitive ELISA, IL-11R coated on plate; competitor: biotinylated TS7 (0.1 µg/mL).
Conditions: not given
On the procedure:
Relative binding activity of the antibodies was tested by competitive ELISA using biotinylated mAbs 8E2 or TS7. Antibodies 8E2 and TS7 were biotinylated using sulfo-NHS Biotin (Thermo Fisher) per the manufacturer's instructions. IL-11R was coated onto ELISA plates (Nunc, MaxiSorp) at 2 μg/mL in PBS, and plates were blocked with 2% BSA in PBS. After washing the plate with water, antibodies to be tested were titrated across the plate in a final volume of 90 μL followed by addition of 10 μL of biotinylated 8E2 or biotinylated TS7, as indicated in Table E1 (0.1 μg/mL final concentration) to each well. Plates were incubated for 2 hours on a plate-shaker, followed by washing and addition of 100 μL/well of streptavidin-HRP (Jackson ImmunoResearch, 1/1000 dilution). After a further 1 hour incubation, plates were washed, developed with Ultra-TMB HRP substrate (Thermo Fisher), and stopped by the addition of 50 μL/well of 2 M sulfuric acid. Plates were read at 450 nm on an iD5 plate reader (Molecular Devices).
On the technique in general: An ELISA detects its analyte on a solid surface through an enzyme-linked reagent.
In the case of B1, the IC50 was 6.9 µg/mL.

In turn, B2 showed an IC50 of 6.2 µg/mL.

In turn, B3 registered an IC50 of 2.3 µg/mL. Against the preceding molecule, the IC50 is about 2.7-fold lower.

The next test addresses T2, human IL-11Rα. The test is described as follows: BLI (Octet RED96e), mAb on protein G biosensors, hIL-11Rα in solution.
Conditions: not given
On the procedure:
(§1) Association was carried out in the presence of a 2-fold dilution series of hIL-11Rα and was allowed to proceed for 120 seconds; dissociation was measured for 300 to 1200 seconds.
(BLI is a label-free optical method that tracks binding on a fibre tip over time.)
As for B1, the equilibrium dissociation constant (Kd) is < 1 pM, the dissociation rate constant (koff) was < 1e-07 s⁻¹ and the association rate constant (kon) was determined as 63500 M⁻¹ s⁻¹.

B2: the Kd was < 1 pM, the off-rate (koff) was < 1e-07 s⁻¹ and the association rate constant (kon) was found to be 65100 M⁻¹ s⁻¹.

As to B3, the dissociation constant (Kd) was < 1 pM, the dissociation rate constant (koff) was < 1e-07 s⁻¹ and the on-rate (kon) is 62200 M⁻¹ s⁻¹.

A further test concerns IL-11 signaling in STAT3 Reporter (Luciferase)—HEK293 cell line. In words: Cell-based STAT3 reporter (luciferase) assay for inhibiting IL-11 signaling. The conditions noted are these: compared with TS7 and 8E2. Also on record: species or system human. On the procedure:
Further testing of the lead mAbs was carried out using a cell-based reporter assay. IL-11 is reported to signal through the STAT3 and ERK pathways. Therefore, a STAT3 reporter cell line in which firefly luciferase gene expression is driven by STAT3 response elements located upstream of a minimal TATA promoter was selected to analyze mAb functional activity. In these cells, IL-11 can activate the endogenous STAT3 allowing it to bind to the STAT3 response elements, inducing transcription of the luciferase reporter gene and resulting in readily detectable luciferase expression. Antibodies to IL-11R which block IL-11 signaling should inhibit expression of IL-11 driven luciferase in these cells.
The STAT3 Reporter (Luciferase)—HEK293 cell line (BPS Bioscience, catalog #79800-P) was grown, passaged, and assayed as per manufacturer's protocols. Cells were added at 25,000 cells per well in a 96-well microtiter dish and incubated at 37° C. for 30-45 min. in 5% CO2 humidified air. Anti-IL-11R mAbs were added as a 3-fold dilution series in duplicate columns or rows, and plates were returned to the incubator for an additional 1 h at 37° C. after which 40 ng/mL IL-11 was added to each well to initiate the signal transduction cascade and luciferase production. Plates were incubated for 18-24 hours at 37° C. and luciferase was detected using a One-Step Luciferase Assay System (BPS Bioscience, cat. no. 60690-1) as per manufacturer's instructions.
As for B4, the “relative potency at inhibiting IL-11 signaling (in words)” value was “less potent than TS7”.

For B5, the “relative potency at inhibiting IL-11 signaling (in words)” value is on record as “comparable in potency to TS7”.

Consider B6, for which the “relative potency at inhibiting IL-11 signaling (in words)” value is “less potent than TS7”.

B7: the “relative potency at inhibiting IL-11 signaling (in words)” value is “comparable in potency to TS7”.

In the case of B8, the “relative potency at inhibiting IL-11 signaling (in words)” value is recorded as “more potent at inhibiting IL-11 signaling than either of TS7 or 8E2”.

For B9, the “relative potency at inhibiting IL-11 signaling (in words)” value is recorded as “more potent at inhibiting IL-11 signaling than either of TS7 or 8E2”.

As for B10, the “relative potency at inhibiting IL-11 signaling (in words)” value was “comparable in potency to TS7”.

The next test concerns the target T3, hIL-11Rα (Homo sapiens, UniProt Q14626).
T3 sequence (Q14626 23-422): T1 sequence (looked up)
The test is described as follows: Kinetic binding analysis by biolayer interferometry (protein G biosensors, Octet RED96e). The conditions noted are these: beyond the ability of the instrument to determine an accurate off-rate (kd). On the procedure: as §1
On to B5, for which the “binding affinity (in words)” value was “very high binding affinity”.

As for B7, the “binding affinity (in words)” value is on record as “very high binding affinity”.

As for B8, the “binding affinity (in words)” value is given as “very high binding affinity”.

Consider B9, for which the “binding affinity (in words)” value is reported as “very high binding affinity”.

In the case of B10, the “binding affinity (in words)” value is listed as “very high binding affinity”.

Staying with this test, now noted: protein G biosensors; association 120 seconds.
The molecule B4 registered a ka of 32900 M⁻¹ s⁻¹.

B5 had a ka of 84000 M⁻¹ s⁻¹.

As for B6, the ka amounted to 840000 M⁻¹ s⁻¹.

For B7, the ka is 58100 M⁻¹ s⁻¹.

B8 showed a ka of 62200 M⁻¹ s⁻¹.

In turn, B9 showed a ka of 66700 M⁻¹ s⁻¹.

Consider B10, for which the ka came to 33700 M⁻¹ s⁻¹.

The test is the same for the next values; noted with them: protein G biosensors; dissociation 300 to 1200 seconds.
Consider B4, for which the kd amounted to 0.0181 s⁻¹.

As for B5, the kd is <1e-07 s⁻¹.

Turning to B6, the kd worked out at 0.000416 s⁻¹.

Regarding B7, the kd was <1e-07 s⁻¹.

Turning to B8, the kd is <1e-07 s⁻¹.

As to B9, the kd was <1e-07 s⁻¹.

As for B10, the kd was <1e-07 s⁻¹.

The term IC50 denotes the point on the concentration scale where inhibition reaches its midpoint. Broadly, the Kd is a measure of binding affinity in units of concentration. Read a low Kd as higher affinity. The koff is a measure of how fast the partners let go of each other. A high value points to a short-lived complex. Broadly, the kon is the second-order rate constant of association. A higher kon goes with faster complex formation.
